Measured values: paper PMC10244618
Values joined by “and” are separate entries in the source; they are usually repeats but may differ in a detail not shown here. Equal values may be shown once.

B1: NF2 (merlin) isoform 7, human, full length (507 aa, lacks exons 2-3 = isoform-1 residues 39-121; exon-16 C-terminus), P35240-4 (parent)
chain: MAGAIASRMSFSSLKRKQPKTFTVRIVTMDAEMEFNCEVKKQILDEKIYCPPEASVLLASYAVQAKYGDYDPSVHKRGFLAQEELLPKRVINLYQMTPEMWEERITAWYAEHRGRARDEAEMEYLKIAQDLEMYGVNYFAIRNKKGTELLLGVDALGLHIYDPENRLTPKISFPWNEIRNISYSDKEFTIKPLDKKIDVFKFNSSKLRVNKLILQLCIGNHDLFMRRRKADSLEVQQMKAQAREEKARKQMERQRLAREKQMREEAERTRDELERRLLQMKEEATMANEALMRSEETADLLAEKAQITEEEAKLLAQKAAEAEQEMQRIKATAIRTEEEKRLMEQKVLEAEVLALKMAEESERRAKEADQLKQDLQEAREAERRAKQKLLEIATKPTYPPMNPIPAPLPPDIPSFNLIGDSLSFDFKDTDMKRLSMEIEKEKVEYMEKSKHLQEQLNELKTEIEALKLKERETALDILHNENSDRGGSSKHNTIKKPQAQGRRPICI

Variants of: B1
Experiment: reverse yeast two-hybrid deep mutational scan (rY2H-seq): NF2 isoform 7 mutant library as bait mated with wild-type prey strains; selection on medium lacking adenine for non-interacting pairs; NextSeq paired-end sequencing; enrichment vs …
Conditions: yeast diploids after mating (RBait_S3 x RPrey_S3), 30 °C, selection for reporter genes on NB agar, HIGHER = WEAKER BINDING (the opposite of display enrichments): higher = stronger loss of interaction: reverse Y2H selects yeast in which bait and prey do NOT interact (growth without adenine), so a …, hits-only table, scale: rY2H score, numbering: uniprot, sequence starts at 1
[1] = with EMILIN1 (elastin microfibril interfacer 1), Q9Y6C2, human ABL2 co-expressed as the kinase-dead K35M mutant …
[2] = with EMILIN1 (elastin microfibril interfacer 1), Q9Y6C2, human tyrosine kinase ABL2 co-expressed as the active kinase …
[3] = with NF2 C-terminal domain (wild type; homomeric NF2-NF2 interaction), P35240, human ABL2 co-expressed as the kinase-dead K35M mutant …, partner unresolved
[4] = with PIK3R3 (phosphatidylinositol 3-kinase regulatory subunit gamma), Q92569, human tyrosine kinase ABL2 co-expressed as the active kinase …
[5] = with KDM1A (lysine-specific histone demethylase 1A; the table's label AOF2 is a gene synonym of KDM1A), O60341, human ABL2 co-expressed as the kinase-dead K35M mutant …
[6] = with KDM1A (lysine-specific histone demethylase 1A; the table's label AOF2 is a gene synonym of KDM1A), O60341, human tyrosine kinase ABL2 co-expressed as the active kinase …

Variant	enrichment [1]	enrichment [2]	enrichment [3]	enrichment [4]	enrichment [5]	enrichment [6]
L149A	4.26	2.53 and 5.08	2.75 and 3.85	17.7	–	–
M280E	2.68	–	–	–	–	–
T28L	5.37	–	–	–	–	–
R227K	1.95	–	–	–	–	–
V56C	2.08	3.78 and 9.66	3.78	11.6 and 11.3	7.69 and 9.8	6.5
V56K	–	3.86	–	3.28	8.67	–
N176L	7.14	1.82	10.6	1.81	–	–
A59L	10.7 and 8.14	–	7.54	25.9	15.4	29
M251A	3.87 and 2.36	6.14	–	4.21	4.5	2.61
P163L	3.08	3.88	1.78	12.3	7.24	5.95
E272A	3.71	–	–	–	2.65	–
Y61L	3.12	5.18	3.55	4.61 and 3.92	9.24	7.08
A298K	1.79	–	–	–	–	–
G157A	6.42	–	2.36 and 4.41	–	–	5.01
G157L	1.8 and 2.26	7.41 and 6.52	1.76	–	2.15 and 1.62	10.1 and 8.48
I178K	6.13	–	2.57	–	–	–
L158A	2.28	2.56	1.57	–	–	11
Q261L	4.37	–	–	–	–	–
D69A	2.53	–	–	–	–	–

Variant	enrichment [1]	enrichment [2]	enrichment [3]	enrichment [4]	enrichment [5]	enrichment [6]
K246A	2.24	–	–	–	–	–
K246R	1.4	1.64	–	–	–	–
D299A	1.54	–	–	–	–	–
L214E	8.22	5.18 and 15.2	2.48	30	13.4	–
R208C	2.09	–	–	–	–	–
T168L	2.75	6.59 and 12.1	–	–	7.24	–
L291P	1.99	–	–	–	–	–
N180T	1.38	–	–	–	–	–
K281A	6.85	–	–	–	–	–
Q279K	2.01	2.32 and 4.35	–	7.05	6.01	–
Y161L	3.35 and 1.58	–	–	2.22	2.08	–
Y161A	2.53	2.63	2.34	2.72	–	2.23
Y161W	3.13 and 2.01	6.81	–	5.85	–	–
Q64A	2.42	–	–	8.91 and 12.3	–	–
K170R	2.58	–	–	2.74	–	3.72
L256A	5.54	–	–	–	–	2.38
K211I	3.12	3.16	2.67	2.81 and 3.72	5.27	2.6
R253K	5.53	10.6	1.43	–	6.44 and 7.44	–
V74C	2.3	–	–	1.98	2.58	–

Second part, the variant after the results:

enrichment [1]	enrichment [2]	enrichment [3]	enrichment [4]	enrichment [5]	enrichment [6]	Variant
3.38	–	–	–	–	–	L355K
3.8	–	–	–	2.62 and 6.59	–	L315E
2.5	–	–	–	–	–	Q327Y
3.04	6.55	2.55 and 4.04	3.17	–	2.39	L375E
3.27	–	–	–	–	–	K366A
1.75	1.68 and 2.52	–	–	2.69 and 1.45	–	I334T
1.69	–	–	2.88	2.46	3.87	I334K
2.52	–	–	2.25	4.73 and 1.72	–	I334E
2.13	–	3.02	–	5.66	–	E325L
3.26 and 3.02	5.11 and 2.8	2.14 and 2.85	2.56	5.35 and 7.09	6.37 and 2.41	P410L
3.66	4.28	–	4.09	2.42	6.92	E338A
2.37	–	–	–	–	–	E338R
2.51	–	–	–	–	–	E338K
2.57	2.53	3.03	–	5.57	–	E338L
2.05	–	–	2.73	1.8 and 3.49	–	F415K
1.62	–	–	–	–	–	A312G
1.53	1.69	–	4.79	–	–	E323K
3.3	–	1.81	–	2.85	–	Q373E
2.52	3.17	–	–	–	–	Q373Y
2.83 and 2.82	–	–	4.51	7.31 and 3.66	–	Q373A
23.4	13.4	–	–	21.7	6.27	Q345T
2.66	1.75	–	–	–	–	K318L
1.91	–	–	–	–	1.54	K318T
3.27	2.33	–	–	4.54 and 2.35	3.19	R335K
2.12 and 2.16	–	1.59	–	4.47 and 2.73	–	R341L
2.64	3.2	–	–	7.07	–	R341K
8.86	3.97	–	5.49	6.43	–	A406I
7.48 and 4.82	14.3	–	–	11.8	14	A406S

enrichment [1]	enrichment [2]	enrichment [3]	enrichment [4]	enrichment [5]	enrichment [6]	Variant
4.43	–	–	–	–	–	L301K
2.15	2.19	1.71	–	–	–	L348E
3.01	3.29	–	–	4.93	–	L348S
5.53	–	–	–	3.66	–	M431E
2.04	–	–	2.23	–	–	M431A
2.78	–	–	–	–	–	M431K
2.64	4.87	4.53	–	11.9 and 4.42	–	A365E
1.99	1.99	–	–	7.74	–	E359K
2.28	1.79 and 3.15	2.93	–	–	3.19 and 2.75	I329E
2.84 and 2.55	–	–	–	–	–	E472R
3.03	2.65	–	–	2.88	–	P396L
1.75	–	–	3.36	2.24 and 3.28	1.43 and 2.22	K388A
1.9	3.69	–	–	2.45	–	Q324A
–	2.07	2.52	–	3.56	–	R364K
2.39	2.1 and 5.12	–	–	–	–	M401W
2.05	–	–	1.56	3.12	3.23 and 2.41	M401A
4.06	–	–	–	2.49 and 5	–	A302E
2.66	3.99	–	–	2.28	–	L342A
3.35	–	–	–	–	–	D430K
1.71	–	–	–	–	1.44	G419A
1.9	–	–	–	–	–	N402T
5.14	3.53	–	3.96	–	–	P403R
3.57 and 2.37	–	–	4.58	–	–	P405Q
3.67	–	–	–	–	–	H479E
–	3.15	–	4.76	–	–	R363E
5.41	–	9	9.86	13.8	–	T394L
2.63	–	–	–	–	–	D425A
